Measured values published in paper PMC11202230, “The Improved Antineoplastic Activity of Thermophilic L-Asparaginase Tli10209 via Site-Directed Mutagenesis” (Biomolecules, 2024).

B1: L-asparaginase Tli10209 (Thermococcus litoralis DSM 5473; D50G/T70A) (protein)
chain: MSEKRKLERRGAEDMKRILIIGTGGTIASAKTDAGFKSVLTIDEILEKAGIKLKNGYEIDTRNILNIDSALIQPEDWERIAKEVYKALEDYDGIVITHGTDTLAYTASMLTFMIRGINKPVVLTGSMRPVTEEESDAPRNLKAAIRFAMEDVSGIFVAFMDKIMLGCRTSKIRALGLNAFMSINYPDVAYVKGEEVIYNLPQKRFKPKGEPVLDTKYEPRVVFIRLTPGLDGNAIDALVKAGYRGIVLEGYGAGGIPYRKRDILSKIREITPQIPVVMTTQALYDGVDLTKYEVGRKALEAGIIPAKDMTKETTITKLMWALGHTKNVEEVKEIMHTNYADEIEG
B2: L-asparaginase Tli10209 (Thermococcus litoralis DSM 5473; F36Y) (protein)
chain: MSEKRKLERRGAEDMKRILIIGTGGTIASAKTDAGYKSVLTIDEILEKADIKLKNGYEIDTRNILNIDSTLIQPEDWERIAKEVYKALEDYDGIVITHGTDTLAYTASMLTFMIRGINKPVVLTGSMRPVTEEESDAPRNLKAAIRFAMEDVSGIFVAFMDKIMLGCRTSKIRALGLNAFMSINYPDVAYVKGEEVIYNLPQKRFKPKGEPVLDTKYEPRVVFIRLTPGLDGNAIDALVKAGYRGIVLEGYGAGGIPYRKRDILSKIREITPQIPVVMTTQALYDGVDLTKYEVGRKALEAGIIPAKDMTKETTITKLMWALGHTKNVEEVKEIMHTNYADEIEG
B3: L-asparaginase Tli10209 (Thermococcus litoralis DSM 5473; F36Y/T70A) (protein)
chain: MSEKRKLERRGAEDMKRILIIGTGGTIASAKTDAGYKSVLTIDEILEKADIKLKNGYEIDTRNILNIDSALIQPEDWERIAKEVYKALEDYDGIVITHGTDTLAYTASMLTFMIRGINKPVVLTGSMRPVTEEESDAPRNLKAAIRFAMEDVSGIFVAFMDKIMLGCRTSKIRALGLNAFMSINYPDVAYVKGEEVIYNLPQKRFKPKGEPVLDTKYEPRVVFIRLTPGLDGNAIDALVKAGYRGIVLEGYGAGGIPYRKRDILSKIREITPQIPVVMTTQALYDGVDLTKYEVGRKALEAGIIPAKDMTKETTITKLMWALGHTKNVEEVKEIMHTNYADEIEG
B4: L-asparaginase Tli10209 (Thermococcus litoralis DSM 5473) (protein)
chain: MSEKRKLERRGAEDMKRILIIGTGGTIASAKTDAGFKSVLTIDEILEKADIKLKNGYEIDTRNILNIDSTLIQPEDWERIAKEVYKALEDYDGIVITHGTDTLAYTASMLTFMIRGINKPVVLTGSMRPVTEEESDAPRNLKAAIRFAMEDVSGIFVAFMDKIMLGCRTSKIRALGLNAFMSINYPDVAYVKGEEVIYNLPQKRFKPKGEPVLDTKYEPRVVFIRLTPGLDGNAIDALVKAGYRGIVLEGYGAGGIPYRKRDILSKIREITPQIPVVMTTQALYDGVDLTKYEVGRKALEAGIIPAKDMTKETTITKLMWALGHTKNVEEVKEIMHTNYADEIEG
B5: L-asparaginase Tli10209 (Thermococcus litoralis DSM 5473; D50G) (protein)
chain: MSEKRKLERRGAEDMKRILIIGTGGTIASAKTDAGFKSVLTIDEILEKAGIKLKNGYEIDTRNILNIDSTLIQPEDWERIAKEVYKALEDYDGIVITHGTDTLAYTASMLTFMIRGINKPVVLTGSMRPVTEEESDAPRNLKAAIRFAMEDVSGIFVAFMDKIMLGCRTSKIRALGLNAFMSINYPDVAYVKGEEVIYNLPQKRFKPKGEPVLDTKYEPRVVFIRLTPGLDGNAIDALVKAGYRGIVLEGYGAGGIPYRKRDILSKIREITPQIPVVMTTQALYDGVDLTKYEVGRKALEAGIIPAKDMTKETTITKLMWALGHTKNVEEVKEIMHTNYADEIEG
B6: L-asparaginase Tli10209 (Thermococcus litoralis DSM 5473; K48L) (protein)
chain: MSEKRKLERRGAEDMKRILIIGTGGTIASAKTDAGFKSVLTIDEILELADIKLKNGYEIDTRNILNIDSTLIQPEDWERIAKEVYKALEDYDGIVITHGTDTLAYTASMLTFMIRGINKPVVLTGSMRPVTEEESDAPRNLKAAIRFAMEDVSGIFVAFMDKIMLGCRTSKIRALGLNAFMSINYPDVAYVKGEEVIYNLPQKRFKPKGEPVLDTKYEPRVVFIRLTPGLDGNAIDALVKAGYRGIVLEGYGAGGIPYRKRDILSKIREITPQIPVVMTTQALYDGVDLTKYEVGRKALEAGIIPAKDMTKETTITKLMWALGHTKNVEEVKEIMHTNYADEIEG
B7: L-asparaginase Tli10209 (Thermococcus litoralis DSM 5473; K48L/T70A) (protein)
chain: MSEKRKLERRGAEDMKRILIIGTGGTIASAKTDAGFKSVLTIDEILELADIKLKNGYEIDTRNILNIDSALIQPEDWERIAKEVYKALEDYDGIVITHGTDTLAYTASMLTFMIRGINKPVVLTGSMRPVTEEESDAPRNLKAAIRFAMEDVSGIFVAFMDKIMLGCRTSKIRALGLNAFMSINYPDVAYVKGEEVIYNLPQKRFKPKGEPVLDTKYEPRVVFIRLTPGLDGNAIDALVKAGYRGIVLEGYGAGGIPYRKRDILSKIREITPQIPVVMTTQALYDGVDLTKYEVGRKALEAGIIPAKDMTKETTITKLMWALGHTKNVEEVKEIMHTNYADEIEG
B8: L-asparaginase Tli10209 (Thermococcus litoralis DSM 5473; T70A) (protein)
chain: MSEKRKLERRGAEDMKRILIIGTGGTIASAKTDAGFKSVLTIDEILEKADIKLKNGYEIDTRNILNIDSALIQPEDWERIAKEVYKALEDYDGIVITHGTDTLAYTASMLTFMIRGINKPVVLTGSMRPVTEEESDAPRNLKAAIRFAMEDVSGIFVAFMDKIMLGCRTSKIRALGLNAFMSINYPDVAYVKGEEVIYNLPQKRFKPKGEPVLDTKYEPRVVFIRLTPGLDGNAIDALVKAGYRGIVLEGYGAGGIPYRKRDILSKIREITPQIPVVMTTQALYDGVDLTKYEVGRKALEAGIIPAKDMTKETTITKLMWALGHTKNVEEVKEIMHTNYADEIEG

These proteins were tested on NC(=O)C[C@H](N)C(=O)O (assay: Nessler reagent assay of ammonia, Michaelis-Menten fit). Details: pH 10, 80 °C, 0.5-18.0 mM L-asparagine, free enzyme.
Format: biochemical, Thermococcus litoralis
From the text: Nessler reagent assay of ammonia, Michaelis-Menten fit on L-asparaginase Tli10209

Protein | Km [mM] | kcat [s⁻¹] | kcat/Km [M⁻¹ s⁻¹]
B1 | 2.68 | 2050 | 764000
B2 | 7.00 | 2500 | 357000
B3 | 6.28 | 2930 | 466000
B4 | 6.78 | 2300 | 340000
B5 | 9.03 | 3890 | 431000
B6 | 9.62 | 5080 | 528000
B7 | 6.65 | 2760 | 415000
B8 | 7.90 | 4150 | 525000
